Source: a protein production outcome set (Wang et al. 2014)

Assay: label from the status in PepcDB records

| Sequence | protein production |
| --- | --- |
| MGCYHPLSGTDGTLMRHTLPIAPQFYVTAPQPCPYLAGRMERKLFTALQGEGAERLNNALSQQGFRRSQNVLYRPSCADCAACLSARIDVSAFRASRSQKRAMRRNAHLTRRATSPWATDEQYELFRRYLDSRHADGGMADMDVFEFAAMIEETPIRSRVIEYAHRDTRALIGVSLTDVLDDGLSMVYSFYDPDLHRDSLGTHMILDHIAIAREAGLPYVYLGYWVPGSPKMGYKSRFSGLEIYLGGRWQAMTDPEAHDAIRHPLSTDPIAEQVANIQLPDRWPTGD | failed |
| MGCYHPLSGTDGTLMRHTLPIAPQFYVTAPQPCPYLAGRMERKLFTALQGEGAERLNNALSQQGFRRSQNVLYRPSCADCAACLSARIDVSAFRASRSQKRAMRRNAHLTRRATSPWATDEQYELFRRYLDSRHADGGMADMDVFEFAAMIEETPIRSRVIEYAHRDTRALIGVSLTDVLDDGLSMVYSFYDPDLHRDSLGTHMILDHIAIAREAGLPYVYLGYWVPGSPKMGYKSRFSGLEIYLGGRWQAMTDPEAHDAIRHPLSTDPIAEQVANIQLPDRWPTGDLEHHHHHH | failed |
| MGDPFLIGGVIIACFVAFNIGGATTGPAFGPAVGANVLSKTTAGALMAVAFFGGAYTIGRRVVDTLGTELVHDPSVFTLEASIIVLFFIGGALLVGNLSGAPASTSMTAVGAIIGLGLASGELNFAVVGEILAWWILSPIIGFWLAVMVGRYGYEALDRRVAIEQSDGPLLAFERVELGRWPVVRLRESPVVRMERISPKLWPALGPNTSWREAVGTAVLVSIGFLMAFSSGTSNIANAIAPLVGSGALAMNPGILIGCGAVAVGALTIARRTMETLGNDITDLPLTAAIVVALLSSLIIIALSALGIPASFVVVATLCIIGLGWGRSTQAVSVAEAVRGDVSPQVSVGALARGDDATVGTVRSQSAPQGASRRTAPVRSDLFDPGTSVRVVLMQNVVPLLATGGSYLTFWLLPVGG | failed |
| MGDRVNLEGIVIDIEQTNDQLSFNVTDENESVPVVYDGPMPETMSVGRTVVAKGYYNGSVVEAESLSIRAHEGLEHHHHHH | not failed |
| MGEAAKDQTEEVIQAWYLDNKEEDQKLPHHKDPKEFVSLDKLAELGVLCWRLDADNYETDEELKRIRESRGYSYMDLCEVCPEKLPNYEEKVKMFFEEHLHIDEEIRYCLAGSGYFDVRDLNDIWIRVWVKKGGLIVFPAGIYHRFTVDSDNYMKAMRLFVGGPVWTAYNRPHDHLPARKAYMKKFLKVIGDRNIDASA | failed |
| MGEAATKSDRQQNQTRLWLNILRLHGLVFGDLNRQLLDETGLSLAKFDAMAQLARNPDGLSMGKLSGALKVTNGNVSGLVNRLIKDGMVVKAMSADDRRSFSAKLTDAGLTTFKQASEAHNRILAELLRAVSDQDMVEASAALRGILESMQTGASLD | not failed |
| MGEIRNYIKLILIGVAILVTVTMIISATGCDILPPPASAIKPPQYINASSGEVEDPKAIARRFLTPGTYFSYPTHPRNADAVWEVDIDGDGRAELLTLYRGRDLKNNGVEVFGVFILKQDENHEWQIFWEQQYTANIVALDWADVRDITGDNYPELLIGWNIGYRIGSNLDIYSLKEEDKPRLISSIKYSEIVGIEDRRGINNEIKPVLMMYLFDEEMYESENEGRKDEYFHILQWDYKEWMGGGLVEADDFYASYYVNVIEDLKESLERYSNNYYQWYILALAQLRSGKPMDALESVGKVLEITQRYINRHGERTVKEVFKYQKKARILKAAAYIKMGKYHESIIESNYVLGNYDIDDKELAQIYLNLGYAYAGLKQYEMAGTYFNKSCETAETVYKEGTALYLLNSYKAKKQLEYIKPFLTSSH | failed |
| MGEKPGTRVFKKSSPNCKLTVYLGKRDFVDHLDKVDPVDGVVLVDPDYLKDRKVFVTLTCAFRYGREDLDVLGLSFRKDLFIATYQAFPPVPNPPRPPTRLQDRLLRKLGQHAHPFFFTIPQNLPCSVTLQPGPEDTGKACGVDFEIRAFCAKSLEEKSHKRNSVRLVIRKVQFAPEKPGP | failed |
| MGEKVSIILTSYNKPDYLQKAIESVIQQTHDLWELFIMDDHSNAETTAVIHKYLHDRRIQYHNSFVHPADRLKTARYATLINSALPFADGDYISYLTDDTVYHPERLSRMVQEFSHKPEAQAVYSKQKVVHVNERGEEISHFYRNANAVLDQAAFQVDHCSVMHRRSLLNLIHHKFGGYWDDDMKHWNHGDAIFWARLNNFTPFLPINEVLDTTYKTPDSFQNAYRFLPADLIDGSFVKGSDQNVYFFDQGVRHPVGEKWGFLYLNRTVAVPDPYLFQYRIGKILNIPNYILVKEADHPAIFYIEAGKKRRIVDQYAFQFYQFQRKDIVTIGKEEMETLPEGPPITWKRSELIKNPPGRRLFFIEREPFLFLNGVFHPISEQVTRKFFLHQKPISASFRNIQQFPIGKPFYPVYDEIIKKLNIATELEHHHHHH | not failed |
| MGEMENIIYSIYHPTILVGFAIGILSLLAIGFQKNDLHALILTDVVECAMLIIIAGVGTDLAEALILPGLVVSLAELLAVSEVLITRKYLKSKRPKPKSYKLFEEFKLPLYTGELKYDIHMEILKTSPKFLAIILIVYGAILSGFTGGAVIATGLLFYALSQRVIGVEISEELKTMWEGISGLSGIAWALWIFGFIGFFVFPDKWLLCLLMAGLGLVIKVGSKLGLIGYIGEVR | failed |
| MGEPFGGPLMGRLVSLLPSATDLIFELGLGEQLLGVSHCCDHPGAASLPVLTRSIIGSDLPQAEIDRAVSEAVRAGRALYTVDGPLLDRLRPDLVVTQGVCEVCAVTPGTVAEAVRFLPGCLPAEQVLSLEGKTFAGILADLRALARAAGVRERGEALAAESERRWNAIRPVGVQVPEPPRVLTLEWVDPPFYGGHWVPEQVAQAGGKDVLGHAGRDSGRTSWEDVVQLDPDVIVVMCCGYGLSDNAEFARQVLSHPELRAVRAGQVWGVDANAHFSRPSLGVVRGAEVLAALLRGEESAGESVRVRAELEHHHHHH | not failed |
| MGFDFGTVLVFAVVAVGFALGGIAASRALGPKWPNPEKASIYECGERPVGVAWFNFNPRFYLVALVFLVFEVDIALTFPVVAVFKGWVAQGPGMAWVAFFELLVFTGILVVGLAWAWAHGDLEWIKTLGAPSEEAPARAEPRRAA | failed |
| MGFFDSGIGGMTVLYEAIKVLPYEDYIFYADTLNVPYGEKSKGKVKEYIFNAAEFLASQNIKALVIACNTATSIAIEDLRRNFDFPIIGIEPAVKPAINKCTEERKRVLVVATNLTLKEEKFHNLVKEIDHHDLVDCLALPGLVEFAENFDFSEDKIIKYLKNELSSFDLKQYGTIVLGCTHFPFFKNSFEKLFGIKVDMISGSVGTAKQLKKVLADRNQLGKGSGSITFFNSGHKIVDQEVISKYKRLFEILDETQRSHVGH | failed |
| MGFHLRGNNDFAFKRLYINLPQNSQMRAQLRRLIDNGSDTVVVSDKQDADAFLDVLSENRVKTISSLTPQGVVREYRITYRFSFQLRDAHDNLLIPPSEITLFRDLSYNETQVLAKDYEEAALYRDMQGDIVNQLVRRLASVRLPSLEHHHHHH | not failed |
| MGFLVPSEITVSEFLLDFLNKYSENISLATYNNYVSICKNYINPSIGKYKIQDLHPVHIQNYIDKLSYKLNPQSIKIHINILKLAIKRAYRLKLIKENVMDSIKAPLEHHHHHH | failed |
| MGFNVKTPLLATDVIIRLWDGENFKGIVLIERKYPPVGLALPGGFVEVGERVEEAAAREMREETGLEVRLHKLMGVYSDPERDPRAHVVSVVWIGDAQGEPKAGSDAKKVKVYRLEEIPLDKLVFDHKKIILDFLKGNY | not failed |
| MGFSFLLATVQKERMKRRSRTRSRSRRRAKQDPKTWVARYIPQDLLIEILTRLPPKSVMRFKCVSKFWSSLLSSRYFCNRFLIVPSQPQPSLYMCLLDRYNYSKSLILSSAPSTSPYSFVFDQDLTIRKMGGFFLRILRGFIFFTRNLKARIYNPTTRQLVILPTIKESDIIAGPPYNILYFICHDPVNDRYKLLCTVSYASDNDLQNLKSELWIFVLEAGGSWKRVANEFPHHVPSHLDLNMNGVLYFLAWTDPHTCMLVSFDVRSEEFNTMQVPRNAGDTLPRQEKGVVNRVW | failed |
